From the supplement of paper PMC11780869

Test system: Bacillus subtilis
Assay: cleaved RNA product abundance (RNA/gDNA barcode ratio) relative to median wild-type variant (ratio to wild type); higher = more accumulation of the downstream cleavage product
Method in brief: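 Sequencing of barcodes from gel-selected, reverse-transcribed cleaved RNA and from genomic DNA, with UMI collapsing, yielded a per-construct RNA:gDNA ratio. Scaled to the median construct with the unmutated site, this ratio is the cleaved product abundance. The barcoded reporters (truncated aprE or tetM mRNAs with mutagenized RNase Y cleavage-site windows) were integrated into the B. subtilis chromosome, and cultures grew in LB at 37°C from OD600 0.0003 to 0.3.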

[1] = experiment (reporter, strain, medium): exp 2b: truncated aprE reporter, strain BJT200, cleavage site: cggR-gapA (positions -7 to +36 mutated)
[2] = experiment (reporter, strain, medium): exp 4a: truncated aprE reporter, strain BJT201 with 2% xylose (RNase J1 expressed), cleavage site: cggR-gapA (positions -7 to +36 mutated)
[3] = experiment (reporter, strain, medium): exp 8a: truncated aprE reporter, strain BJT201 with 2% xylose (RNase J1 expressed), cleavage site: glnRA (positions -5 to +31 mutated)
[4] = experiment (reporter, strain, medium): exp 6: tetM reporter, strain 168, cleavage site: cggR-gapA (positions -7 to +36 mutated)

Sequence | cleaved RNA product abundance [1] | cleaved RNA product abundance [2] | cleaved RNA product abundance [3] | other results
ACAGACGAAGGAGCCGCAAAGAAGTTATTAATGGATCAATAATCCCTCAATATAAATATCTCTCACTTATTTAAA | 0.0839 | 0.127 | – | –
CGACATGTCCCGCTTCTTTCATTAATCCTTTAGCAACTGTTTTGCTATACACATTTACCTTTTAAGAGGAGGAAT | – | – | 0.451 | –
CGACATGTCCCGCTTCTTTCATTAATCCGTTAGGAACTGTTTTGCTATAAACATTTACCTTTTAAGAGGAGGAAT | – | – | 0.289 | –
ACAGACGAAGGAGCCGCAAAGAAGTTATTAAGGGATGAATAATCCCTCAAAATACATATCTCTCACTTATTTAAA | 0.202 | 0.3 | – | –
ACAGACGAAGGAGCCGCAAAGAAGTTATTTAGGGATAAATAATCCCTCAATATAAATATCTCTCACTTATTTAAA | 0.577 | 0.696 | – | –
ACAGACGAAGGAGCCGCAAAGAAGTTATTAAGGCATAAATAATCCCTCAATATAAATATCTCTCACTTATTTAAA | 0.0865 | 0.107 | – | –
CGACATGTCCCGCTTCTTTCATTATTCCCTTAGCAACTGTTTTGCTATATACATTTACCTTTTAAGAGGAGGAAT | – | – | 0.221 | –
CGACATGTCCCGCTTCTTTCATTACTCCGTTAGCAACTGTTTTTCTATTTACATTTACCTTTTAAGAGGAGGAAT | – | – | 0.151 | –
ACAGACGAAGGAGCCGCAAAGAAGTCATTAATGGATGAATAATCCCTCAATATAAATATCTCTCACTTATTTAAA | 0.0927 | 0.171 | – | –
CGACATGTCCCGCTTCTTTCATTAATCCGTTTGCACCTGTTTTGCTATATACATTTACCTTTTAAGAGGAGGAAT | – | – | 0.295 | –
ACAGACGAAGGAGCCGCAAAGAAGTTATTAAGGGATGAACAATCCCTAAATATAAATATCTCTCACTTATTTAAA | 0.33 | 0.62 | – | –
ACAGACGAAGGAGCCGCAAAGAAGTTATTAACGGATGAATAATCCCTCAATATAAATATCTCTCACTTATTAAAG | – | 0.172 | – | –
ACAGACGAAGGAGCCGCAACGAAGTTATTAACGGATGAATAATCCCTCAATATAAATATCTCTCACTTATTTAAA | – | 0.155 | – | –
CGACATGTCCCGCTTCTTTCATTAATTCGTTAGCAACTGTTTTGCTATATAAATTTACCTTTTAAGAGGAGGAAT | – | – | 1.12 | –
CGACATGTCCCGCTTCTTTCATTAATCTGTTAGCAACTGTTTTGCCATATACATTTACCTTTTAAGAGGAGGAAT | – | – | 0.108 | –
ACAGACGAAGGAGCCGCAAAGAAGTTATTAAGGGATTAATAATCCATCAATATAAATATCTCTCACTTATTTAAA | 0.401 | 0.288 | – | –
ACAGACGAAGGAGCCGCAAAGAAGTGATTAAGGGATGAATAATCCCTCTATATAAATATCTCTCACTTATTTAAA | – | 0.377 | – | –
ACAGACGAAGGAGCCGCAAGAAGTTATTAGGGGATGAATAATCCCTCAATATAAATATCTCTCACTTATTTAAAG | – | 0.817 | – | –
CGACATGTCCCGCTTCTTTCATTAATCCGTTAGCAATTATTTTGCTATATACATTTACCTTTTAAGAGGAGGAAT | – | – | 1.14 | –
CGACATGTCCCGCTTCTTTCATTAATTCGTTAGCAACTGTCTTGCTATATACATTTACCTTTTAAGAGGAGGAAT | – | – | 0.981 | –

Sequence | cleaved RNA product abundance [1] | cleaved RNA product abundance [2] | cleaved RNA product abundance [3] | other results
ACAGACGAAGGAGCCGCAAAGAAATTATTAATGGATGAATAATCCCTCAATATAAATATCTCTCACTTATTTAAA | 0.122 | 0.169 | – | –
CGACATGTCCCGCTTCTTTCATTACTTCGTTAGCAACTGTTTTGCTATATACATTTACCTTTTAAGAGGAGGAAT | – | – | 1.57 | –
ACAGACGAAGGAGCCGCCAAGAAGTTATTAAGGGATGAATAATCACTCAATATAAATATCTCTCACTTATTTAAA | – | 0.102 | – | –
CGACATGTCCCGCTTCTTTCATTAATGCGTTAGCAACTGTTTTGCTATATAGATTTACCCTTTAAGAGGAGGAAT | – | – | 0.761 | –
ACAGACGAAGGAGCCGCAAAGTAGTTATTAAGGGATGAATAATCTCTCAATATAAATATCTCTCACTTATTTAAA | – | 0.802 | – | –
ACAGACGAAGGAGCCGCAAAGAAGTTATTAAGGGAGGAATAATCCCTGAATATAAATATCTCTCACTTATTTAAA | – | 0.635 | – | –
ACAGACGAAGGAGCCGCAAAGAAGTTATTAAGGGATGAATTATCCCTCAATATAAATATCTCTCACTTATTTAAA | 0.687 | 0.845 | – | cleaved RNA product abundance [4]: 0.559
ACAGACGAAGGAGCCGCAAAGAAGTTATAAAGGAATGAATAATCCCTCAATATAAATATCTCTCACTTATTTAAA | 0.0926 | 0.124 | – | –
ACAGACGAAGGAGCCGCAAAGAAGTTATTAAGGTATGAATAATCCCTCAATATAAATATCTCTCACTTATTTAAA | 0.107 | 0.142 | – | cleaved RNA product abundance [4]: 0.127
ACAGACGAAGGAGCCGCAAAGAAGTTATTAAGGGATCAATAATCCCTAAATATAAATATCTCTCACTTATTTAAA | 0.551 | 0.657 | – | –
ACAGACGAAGGAGCCGCAAAGAAGTTATTAAGGGATGAATAAATCCTCAATATAAATATCTCTCACTTATTTAAA | – | 0.306 | – | –
ACAGACGAAGGAGCCGCAAAGAAGTTATTAAGGGATCGATAATCCCTCAATATAAATATCTCTCACTTATTTAAA | 0.652 | 0.722 | – | –
CGACATGTCCCGCTTCTTTCATTATTCCGTTAGCAGCTGTTTTGCTATATACATTTACCTTTTAAGAGGAGGAAT | – | – | 1.16 | –
ACAGACGAAGGAGCCGCAAAGAAGTTAGTAAGGGATGAATAATCCATCAATATAAATATCTCTCACTTATTTAAA | 0.251 | – | – | –
ACAGACGAAGGAGCCGCAAATAAATTATTAAGGGAAGAATAATCCCTCAATATAAATATCTCTCACTTATTTAAA | – | 0.369 | – | –
ACAGACGAAGGAGCCGCAAAGAAGTTATTAAGGGATGCATAATCCCTCAATATAAATAGCTCTCACTTATTTAAA | – | 0.45 | – | –
ACAGACGAAGGAGCCGCAAAGAACTTATTAAGGGATCAATAATCCCTCAATATAAATATCTCTCACTTATTTAAA | 0.282 | 0.27 | – | –
ACAGACGAAGGAGCCGCAAAGGAGTTATTAAGGGATGAATAATCCCTCAATATAAATATCTCTCACTTATTTAAA | 1.06 | 0.982 | – | cleaved RNA product abundance [4]: 0.911
CGACATGTCCCGCTTCTTTCATTAATCGGTTAGCAACTGTTTTGCTATCTACATTTACCTTTTAAGAGGAGGAAT | – | – | 0.132 | –
CGACATGTCCCGCTTCTTTCATTAATCCGTAAGCAACTGTTTTGCTACATACATTTACCTTTTAAGAGGAGGAAT | – | – | 0.38 | –

Sequence | cleaved RNA product abundance [1] | cleaved RNA product abundance [2] | cleaved RNA product abundance [3] | other results
ACAGACGAAGGAGCCGCAAAGAAGTTATTAAGCGATGAATAATCCCTCAAAATAAATATCTCTCACTTATTTAAA | 0.0793 | 0.108 | – | –
CGACATGTCCCGCTTCTTTCATTAATCCGTTAGCAACTGTTTAGCTATATAAATTTACCTTTTAAGAGGAGGAAT | – | – | 0.426 | –
ACAGACGAAGGAGCCGCAAAGAAGTTATAAAGGGATGAATTATCCCTCAATATAAATATCTCTCACTTATTTAAA | 0.279 | 0.469 | – | –
CGACATGTCCCGCTTCTTTCATTAATCCGATAGCAACTGTTTTGCTATATACATTTACTTTTTAAGAGGAGGAAT | – | – | 0.547 | –
ACAGACGAAGGAGCCGCAAAGAAGTTATGAAGGGATGAATAATCCCTCTATATAAATATCTCTCACTTATTTAAA | – | 0.516 | – | –
ACAGACGAAGGAGCCGCAAAGAAGTTATTAAGGGATGTATAATCCTTCAATATAAATATCTCTCACTTATTTAAA | – | 0.922 | – | –
ACAGACGAAGGAGCCGCAAAGAAGTTAATAAGGGATGACTAATCCCTCAATATAAATATCTCTCACTTATTTAAA | – | 0.308 | – | –
ACAGACGAAGGAGCCGCAAAGAAGTTATTAAAGGGTGAATAATCCCTCAATATAAATATCTCTCACTTATTTAAA | – | 0.202 | – | –
ACAGACGAAGGAGCCGCAAAGAAGTTCTTAAGGAATGAATAATCCCTCAATATAAATATCTCTCACTTATTTAAA | – | 0.133 | – | –
ACAGACGAAGGAGCCGCAAAGTAGTTATTATGGGATGAATAATCCCTCAATATAAATATCTCTCACTTATTTAAA | – | 0.445 | – | –
CGACATGTCCCGCTTCTTTCATTAATCCGTTGGCAACTGTTTTGCTATGTACATTTACCTTTTAAGAGGAGGAAT | – | – | 0.1 | –
ACAGACGAAGGAGCCGCAAAGAAGTTATTAAGGGATGAATAACCCCTCAATATACATATCTCTCACTTATTTAAA | – | 0.37 | – | –
CGACATGTCCCGCTTCTTTCATTAAACCGTTAGCAACTGTTTTGCTATATACATATACCTTTTAAGAGGAGGAAT | – | – | 0.825 | –
CGACATGTCCCGCTTCTTTCATTAATCCGTTAGCTACTGTTTTGCTATATACATTTACGTTTTAAGAGGAGGAAT | – | – | 0.818 | –
ACAGACGAAGGAGCCGCAAAGAAGTTATTAAGGCATGAATAATCCCTCAGTATAAATATCTCTCACTTATTTAAA | – | 0.0715 | – | –
CGACATGTCCCGCTTCTTTCATTACTCCGTTAGAAACTGTTTTGCTATATACATTTACCTTTTAAGAGGAGGAAT | – | – | 0.478 | –
CGACATGTCCCGCTTCTTTCATTAATCCGTTAGCAACTGTTTTGCTATATACATTTTCTTTTTAAGAGGAGGAAT | – | – | 0.842 | –
ACAGACGAAGGAGCCGCAACGAAGTTAATAAGGGATGAATAATCCCTCAATATAAATATCTCTCACTTATTTAAA | 0.227 | – | – | –
CGACATGTCCCGCTTCTTTCATTAATCCGTTATCAACTGTTTTGCTATATAAATTTACCTTTTAAGAGGAGGAAT | – | – | 0.243 | –
